In patent publication US20220402985A1:
Residue numbers refer to the chain shown, from its start. Names may count otherwise. “And” between values parts separate entries of the source, which are not always exact repeats. Identical values can stand only once.

B1: huNRG1(S177-Q237)(3D8)::GG::huFcSEFL2 (Pb) (Fc fusion)
chain: SHLVKCGEKDKTFCVNGGECFMVEDLSIPSRFLCKCPNEFTGDRCQDFFMASFYKAEELYQGGDKTHTCPPCPAPELLGGPSVFLFPPKPKDTLMISRTPEVTCVVVDVSHEDPEVKFNWYVDGVEVHNAKTKPCEEQYGSTYRCVSVLTVLHQDWLNGKEYKCKVSNKALPAPIEKTISKAKGQPREPQVYTLPPSREEMTKNQVSLTCLVKGFYPSDIAVEWESNGQPENNYKTTPPVLDSDGSFFLYSKLTVDKSRWQQGNVFSCSVMHEALHNHYTQKSLSLSPGK
B2: huNRG1(S177-Q237)(3E6)::GG::huFcSEFL2 (Pb) (Fc fusion)
chain: B1 chain with G7A, D10H, T12S, F21Y, M22V, V23I, D25G, L26S, D47K, F48D
B3: huNRG1(S177-Q237)(3E9)::GG::huFcSEFL2 (Pb) (Fc fusion)
chain: SHLVKCAENHKTFCVNGGECFVIEGSSNPSRYLCKCPNEFTGDRCQDVFLASFYKAEELYQGGDKTHTCPPCPAPELLGGPSVFLFPPKPKDTLMISRTPEVTCVVVDVSHEDPEVKFNWYVDGVEVHNAKTKPCEEQYGSTYRCVSVLTVLHQDWLNGKEYKCKVSNKALPAPIEKTISKAKGQPREPQVYTLPPSREEMTKNQVSLTCLVKGFYPSDIAVEWESNGQPENNYKTTPPVLDSDGSFFLYSKLTVDKSRWQQGNVFSCSVMHEALHNHYTQKSLSLSPGK
B4: huNRG1(S177-Q237)(3F2)::GG::huFcSEFL2 (Pb) (Fc fusion)
chain: B3 chain with A7G, N9S, T12S, V22M, S26P, V48D, L50M
B5: huNRG1(S177-Q237)(3G3)::GG::huFcSEFL2 (Pb) (Fc fusion)
chain: B1 chain with K9R, D10E, V23I, D25H, D47E, F48D
B6: huNRG1(S177-Q237)(3G9)::GG::huFcSEFL2 (Pb) (Fc fusion)
chain: B1 chain with K9S, D10H, T12S, I28N, D47K, F48D
B7: huNRG1(S177-Q237)(3H5)::GG::huFcSEFL2 (Pb) (Fc fusion)
chain: B1 chain with K9R, D10H, T12S, F21Y, M22V, D25R, L26P, D47K, F48D, M50L
B8: huNRG1(S177-Q237)(3H8)::GG::huFcSEFL2 (Pb) (Fc fusion)
chain: B1 chain with D10H, T12S, F21Y, D25G, L26S, F32Y, D47E, F48D
B9: huNRG1(S177-Q237)(_200E)::GG::huFcSEFL2 (Pb) (Fc fusion)
chain: B1 chain with G7A, D10E, I28N, F32Y, D47N, F48Y, F49V
B10: huNRG1(S177-Q237)()200E_KDF)::GG::huFcSEFL2 (Pb) (Fc fusion)
chain: B1 chain with G7A, D10E, I28N, F32Y, D47K, F48D
B11: huNRG1(S177-Q237)(_FVIEDPSI)::GG::huFcSEFL2 (Pb) (Fc fusion)
chain: B3 chain with N9K, H10E, G25D, S26P, N28I, D47N, V48Y, F49V, L50M
B12: huNRG1(S177-Q237)(wt)::GG::huFcSEFL2 (Pb) (Fc fusion)
chain: B1 chain with G7A, D10E, E24K, I28N, F32Y, D47N, F48Y, F49V
B13: huNRG1(S177-Q237)(v80)::GG::huFcSEFL2 (Pb) (Fc fusion)
chain: B3 chain with N9S, T12S, N28I, D47K, V48D, F49V, L50M
B14: huNRG1(S177-Q237)(v80.3)::GG::huFcSEFL2 (Pb) (Fc fusion)
chain: B3 chain with N9R, T12S, N28I, Q46E, D47K, V48D, F49V, L50M
B15: huNRG1(S177-F229)(NRGE1C)::1KmodT482V, M493L)::huFcSEFL2 (Pb) (Fc fusion)
chain: SHLVKCGEKHKSFCVNGGECFMIEGPSNPSRYLCKCPNEFTGDRCQEDFMASFGSGSATGGSGSVASSGSGSATHLDKTHTCPPCPAPELLGGPSVFLFPPKPKDTLMISRTPEVTCVVVDVSHEDPEVKFNWYVDGVEVHNAKTKPCEEQYGSTYRCVSVLTVLHQDWLNGKEYKCKVSNKALPAPIEKTISKAKGQPREPQVYTLPPSREEMTKNQVSLTCLVKGFYPSDIAVEWESNGQPENNYKTTPPVLDSDGSFFLYSKLTVDKSRWQQGNVFSCSVMHEALHNHYTQKSLSLSPGK

Tests used:
[1] = molecular target: ErbB3 on rat Schwann cells (rat) (UniProt Q62799); experiment: cell-based or functional assay
ErbB3 on rat Schwann cells (rat), sequence (Q62799 20-1339): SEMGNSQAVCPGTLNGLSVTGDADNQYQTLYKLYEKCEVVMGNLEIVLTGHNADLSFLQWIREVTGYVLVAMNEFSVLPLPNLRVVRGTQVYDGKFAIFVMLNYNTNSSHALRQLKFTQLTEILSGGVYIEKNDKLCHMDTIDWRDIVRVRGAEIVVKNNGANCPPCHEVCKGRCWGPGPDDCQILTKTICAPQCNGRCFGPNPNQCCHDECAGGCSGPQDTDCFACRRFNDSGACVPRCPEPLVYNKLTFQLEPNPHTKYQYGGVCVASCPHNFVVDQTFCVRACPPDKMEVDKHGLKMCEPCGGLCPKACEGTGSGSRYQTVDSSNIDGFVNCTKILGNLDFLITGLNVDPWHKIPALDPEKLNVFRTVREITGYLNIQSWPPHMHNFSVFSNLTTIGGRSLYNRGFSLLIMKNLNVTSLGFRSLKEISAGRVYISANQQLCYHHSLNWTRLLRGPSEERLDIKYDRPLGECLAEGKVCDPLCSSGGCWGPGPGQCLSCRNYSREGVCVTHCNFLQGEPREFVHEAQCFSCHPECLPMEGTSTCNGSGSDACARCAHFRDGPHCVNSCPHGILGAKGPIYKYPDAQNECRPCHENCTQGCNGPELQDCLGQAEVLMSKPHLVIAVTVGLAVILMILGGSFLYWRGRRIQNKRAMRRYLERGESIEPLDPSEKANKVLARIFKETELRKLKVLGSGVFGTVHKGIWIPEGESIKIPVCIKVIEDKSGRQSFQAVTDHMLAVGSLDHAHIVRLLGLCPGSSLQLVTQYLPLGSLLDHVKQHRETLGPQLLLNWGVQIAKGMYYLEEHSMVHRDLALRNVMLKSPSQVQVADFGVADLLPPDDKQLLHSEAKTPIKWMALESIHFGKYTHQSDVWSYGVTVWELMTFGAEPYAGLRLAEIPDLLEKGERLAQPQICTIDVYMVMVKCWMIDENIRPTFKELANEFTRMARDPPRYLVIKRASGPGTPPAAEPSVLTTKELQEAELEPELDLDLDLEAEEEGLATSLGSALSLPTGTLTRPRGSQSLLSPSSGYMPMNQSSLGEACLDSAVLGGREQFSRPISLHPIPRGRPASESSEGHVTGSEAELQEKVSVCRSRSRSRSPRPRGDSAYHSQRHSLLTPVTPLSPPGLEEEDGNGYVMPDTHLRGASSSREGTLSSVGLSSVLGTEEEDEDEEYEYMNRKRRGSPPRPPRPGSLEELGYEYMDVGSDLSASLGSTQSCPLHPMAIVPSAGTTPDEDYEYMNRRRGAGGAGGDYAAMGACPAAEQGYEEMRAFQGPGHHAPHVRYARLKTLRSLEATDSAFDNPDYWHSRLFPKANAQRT

[2] = molecular target: ErbB4 on neonatal rat cardiomyocytes (rat) (UniProt Q62956); experiment: cell-based or functional assay
ErbB4 on neonatal rat cardiomyocytes (rat), sequence (Q62956 26-1308): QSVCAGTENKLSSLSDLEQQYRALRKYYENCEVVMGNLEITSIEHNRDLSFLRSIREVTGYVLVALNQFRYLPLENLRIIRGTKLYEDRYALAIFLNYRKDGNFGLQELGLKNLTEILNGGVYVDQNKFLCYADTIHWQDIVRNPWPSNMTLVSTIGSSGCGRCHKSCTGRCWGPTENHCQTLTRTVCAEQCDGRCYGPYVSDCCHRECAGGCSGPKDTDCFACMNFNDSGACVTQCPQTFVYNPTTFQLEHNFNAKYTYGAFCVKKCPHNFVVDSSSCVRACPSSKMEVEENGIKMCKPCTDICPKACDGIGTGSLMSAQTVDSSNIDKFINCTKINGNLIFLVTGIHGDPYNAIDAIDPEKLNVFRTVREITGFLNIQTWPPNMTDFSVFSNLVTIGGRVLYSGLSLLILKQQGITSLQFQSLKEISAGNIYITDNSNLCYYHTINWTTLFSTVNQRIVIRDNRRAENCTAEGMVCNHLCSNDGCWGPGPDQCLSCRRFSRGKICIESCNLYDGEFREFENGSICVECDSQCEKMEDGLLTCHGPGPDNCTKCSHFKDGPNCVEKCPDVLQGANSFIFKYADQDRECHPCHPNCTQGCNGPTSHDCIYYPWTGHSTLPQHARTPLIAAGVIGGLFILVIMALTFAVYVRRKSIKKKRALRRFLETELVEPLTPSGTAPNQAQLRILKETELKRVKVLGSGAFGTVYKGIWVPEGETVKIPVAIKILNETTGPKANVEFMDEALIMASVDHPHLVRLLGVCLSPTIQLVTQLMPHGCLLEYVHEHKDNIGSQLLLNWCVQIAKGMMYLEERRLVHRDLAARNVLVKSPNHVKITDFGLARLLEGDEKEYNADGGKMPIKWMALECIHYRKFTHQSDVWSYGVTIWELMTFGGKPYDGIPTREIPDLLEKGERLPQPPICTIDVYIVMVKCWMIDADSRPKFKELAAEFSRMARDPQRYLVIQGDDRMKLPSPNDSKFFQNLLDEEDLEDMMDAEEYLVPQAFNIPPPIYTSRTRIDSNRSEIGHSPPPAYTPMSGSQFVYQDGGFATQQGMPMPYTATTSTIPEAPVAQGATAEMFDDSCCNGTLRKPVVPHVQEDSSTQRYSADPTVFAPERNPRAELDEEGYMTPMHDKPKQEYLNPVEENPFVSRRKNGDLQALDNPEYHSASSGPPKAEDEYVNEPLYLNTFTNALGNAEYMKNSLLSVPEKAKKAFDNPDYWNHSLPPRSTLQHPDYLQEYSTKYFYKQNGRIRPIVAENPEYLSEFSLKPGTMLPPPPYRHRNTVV

| Binder | Schwann cells (SC) (ErbB3) Avg EC50 [1] | CM % Agonism AVG [2] [%] | Cardiomyocyte (CM) (ErbB4) Avg EC50 [2] | Selectivity SC/CM [2] |
| --- | --- | --- | --- | --- |
| B1 | > 3000 nM | < 50 | 0.51 nM | > 5800 |
| B2 | > 10000 nM | – | 0.35 nM | > 10000 |
| B3 | > 3000 nM | 70 | 2.68 nM | > 8500 |
| B4 | > 10000 nM | 70 | 0.738 nM | > 10000 |
| B5 | > 10000 nM | 70 | 1.84 nM | > 5400 |
| B6 | > 10000 nM | – | 0.581 nM | > 10000 |
| B7 | > 10000 nM | – | 1.27 nM | > 7800 |
| B8 | > 10000 nM | – | 0.276 nM | > 10000 |
| B9 | 4.82 nM | – | 0.452 nM | 11 |
| B10 | 121 nM | – | 2 nM | 60 |
| B11 | 4.27 nM | – | 0.177 nM | 24 |
| B12 | 0.112 nM and 0.15 nM | – | 0.275 nM and 0.6 nM | 0.4 and 0.3 |
| B13 | 6.65 nM | – | 0.998 nM | 7 |
| B14 | 3000 nM | – | 33.6 nM | 89 |
| B15 | > 10000 nM | 75.8 | 0.4 nM | > 10000 |
